Test results reported in US9518268B2, “Drought tolerant transgenic plants and method of making same” (PURDUE RESEARCH FOUNDATION, priority 2013, dated 2016).
Entries after “also recorded” stand apart in the source; their conditions may differ.

B1: PYL13: Arabidopsis thaliana PYR/PYL/RCAR family protein PYL13, SEQ ID NO: 1 (protein, listed as Arabidopsis thaliana)
chain: MESSKQKRCRSSVVETIEAPLPLVWSILRSFDKPQAYQRFVKSCTMRSGGGGGKGGEGKGSVRDVTLVSGFPADFSTERLEELDDESHVMVVSIIGGNHRLVNYKSKTKVVASPEDMAKKTVVVESYVVDVPEGTSEEDTIFFVDNIIRYNLTSLAKLTKKMMK

Tested on: RD29B-LUC expression
Test: Reconstituted ABA signaling pathway, transient expression in wild-type (Col-0) protoplasts
Format: cell-based, Arabidopsis
Conditions: for ABA-dependent induction of RD29B-LUC expression: co-transfected with ABI1, SnRK2.6 and ABF2, without or with 5 μM ABA, 4.5 h; for RD29B-LUC expression: SnRK2.6 and ABF2; for level of inhibition by PYL13 of the other PYL's activity: 2×PYL13 plasmid, ABI1, SnRK2.6, ABF2 co-expressed
Procedure: To test whether PYL13 can act as an ABA receptor, the ABA signaling pathway in wild-type protoplasts was reconstituted. Turning now to FIG. 1, wild-type (Col-0) protoplasts were used in both panels A and B. After transfection, the protoplasts were incubated for 4.5 hours under light in the absence of ABA (open bars) or in the presence of 5 μM ABA (closed bars). Error bars indicate s.e.m. (n=3). […] ZmUBQ-GUS was used as the internal control. […] Instead, the ABA signaling pathway was reconstituted by co-expression of PYLs, ABI1, SnRK2.6, and ABF2. […] Therefore, the response of other members of the PYL family would not predict the response of PYL13 expression or over-expression in plants.
PYL13 interacts with all clade A PP2Cs tested but binds most strongly to PP2CA. To investigate whether PYL13 inhibits PP2Cs in planta, PYL13 was co-expressed with all clade A PP2Cs in wild-type protoplasts, as shown in FIG. 4. Transfections of all PP2Cs together with SnRK2.6 and ABF2 inhibited RD29B-LUC expression to different degrees, see FIG. 4A, and the degree of inhibition was correlated with the intensity of interaction between PP2Cs and SnRK2.6 (Fujii et al., 2009). […] The ABA signaling pathway was reconstituted by co-expression of PYLs, PP2Cs, SnRK2.6, and ABF2. RD29B-LUC was used as the ABA-responsive reporter. ZmUBQ-GUS was used as the internal control. After transfection, protoplasts were incubated for 4.5 h under light in the absence of ABA (open bars) or in the presence of 5 μM ABA (closed bars). Error bars indicate s.e.m. (n=9).
To investigate the physiological significance of the binding between PYL13 and PYLs in vivo, PYL13 was co-expressed with one of the other PYLs, ABI1, SnRK2.6, and ABF2 in wild-type protoplasts. When the transfected PYL13 plasmid was 2-fold of that of the other PYLs, co-transfections with PYL13 decreased the activity of the ABA-responsive PYLs (FIG. 5E). […] ZmUBQ-GUS was used as the internal control. After transfection, protoplasts were incubated for 4.5 h under light in the absence of ABA (open bars) or in the presence of 5 μM ABA (closed bars). Error bars indicate s.e.m. (n=3).
The ABA signaling pathway was reconstituted by co-expression of PYL13, PYLs, ABI1, SnRK2.6, and ABF2. […] Error bars indicate s.e.m. (n=3). […] Without wishing to be bound by theory, PYL13 inhibition of other PYLs might result from direct interactions between PYL13 and other PYLs or from competition for the binding sites on PP2Cs.
Assays for transient expression in protoplasts were performed as described (Fujii et al., 2009). Leaf strips (0.5 mm) were cut from the middle part of second leaves using a razor blade (VWR SCIENTIFIC) and submerged in 15 mL of enzyme solution containing 20 mM MES, pH 5.7, 1.5% (w/v) cellulase R10 (YAKULT PHARMACEUTICAL INDUSTRY), 0.4% (w/v) macerozyme R10 (YAKULT PHARMACEUTICAL INDUSTRY), 0.4 M mannitol, 20 mM KCl, 10 mM CaCl2, 1 mM 2-mercaptoethanol, and 0.1% BSA. The leaves were vacuum infiltrated for 30 min and then incubated without shaking for 3 h in the dark at room temperature. The enzyme/protoplast solution was diluted with 15 mL of W5 solution (2 mM MES, pH 5.7, 154 mM NaCl, 125 mM CaCl2, and 5 mM KCl) and filtered with a 75-μm nylon mesh. Protoplasts were centrifuged at 100 g for 2 min in a 30-mL round-bottomed tube (SARSTEDT), resuspended in W5 solution, and rested for 30 min at room temperature.
Before transfection, protoplasts were changed into MMg solution (4 mM MES, pH 5.7, 0.4 M mannitol, and 15 mM MgCl2) to a final concentration of 2×10^5 cells per microliter. Protoplasts (100 μl) were gently and thoroughly mixed with the plasmid DNA mixture (less than 10 μl) and 110 μl of PEG solution (40% w/v PEG-4000, 0.2 M mannitol, and 100 mM CaCl2), incubated for 5 min, washed with 440 μl of W5 solution, and resuspended in 50 μl of WI solution (4 mM MES, pH 5.7, 0.5 M mannitol, and 20 mM KCl). After transfection, protoplasts were incubated in WI solution without ABA or with 5 μM ABA under light. […]

Molecule | ABA-dependent induction of RD29B-LUC expression | RD29B-LUC expression (co-transfection with ABI1, ABI2, HAB1, HAB2, or AHG1) | RD29B-LUC expression (co-transfection with PP2CA, HAI2, or HAI3) | level of inhibition by PYL13 of the other PYL's activity (with PYL1) [%] | level of inhibition by PYL13 of the other PYL's activity (with PYL2) [%]
PYL2: Arabidopsis thaliana PYL family ABA receptor protein PYL2, AT2G26040 | enabled the expression; also recorded: restored RD29B-LUC expression |  |  |  | 
B1 | did not enable the expression | did not enable RD29B-LUC expression | enabled the ABA-dependent induction | 67 | 27
